Results from PMC7610252 (Biochemistry, 2017).

T1: FixX subunit of the FixABCX complex from Azotobacter vinelandii (Azotobacter vinelandii, UniProt P53658 1-94)
T1 sequence (looked up): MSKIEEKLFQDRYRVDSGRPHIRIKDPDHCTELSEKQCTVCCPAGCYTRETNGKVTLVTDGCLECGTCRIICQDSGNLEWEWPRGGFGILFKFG

B1: FixA subunit of the FixABCX complex from Azotobacter vinelandii (natural protein, UniProt P53576 1-281, looked up)
chain: MHSVVCIKQLPDSAQIRVHPVTNTIMRQGVPAIINPYDLFALEEALRLKDKFGGTVTVVTMGPPMAEAALRKCLSFGADDAILVSDRAFAGSDTLATSYALSAVIRKIMEDMPVDLIFTGKQTIDGDTAQVGPGIAKRLDYQLLTYVSRIVDVDTAKKEIQVERRAEGGVQLLETSLPCLITMLEGTNEMRFGDLDDLFRAARHELKVWDRVAAGIDTVEMIGLKGSPTVVSKVFAPKPRSKRAELIESHDSDPKNLAEAALAKLFTQHPNLEQEIAKRAV
B2: FixC subunit of the FixABCX complex from Azotobacter vinelandii (natural protein, UniProt P53572 2-427, looked up)
chain: AERFDVIVVGAGMAGNAAAYTLAKGGLKVLQIERGETPGSKNVQGAILYADAIEKIIPDFRDDAPLERHLIEQRVWVMDDASYGYHYRSEDFNKPPYNRYTIIRVHFDQWFNKKAREAGVLTICETRHDLLIEGGKVVGVRTDRQGGEVRADAVILADGVNSRLAVKAGFSRDQPENWALAVKEIHFLPQETMEARFNIGEEEAAIEMAGKIDAGMMGTGFLYTNKESITLGVGCMLSDFKQQKISPYELLDRMKTHPSIAPLIAGSDMKEYAAHLIPEGGYNAIPQVYGDGWMIAGDAPIRHGIHREGSNLAMTTGMLAAQTLVELRAADKPFSAANLAEYKKKLDDSFVMKDLKKYRRMPEIFHKNKQFFTTYPDLLSRAAQTLIRVDGVDKKTKEKEIKKSFIGLRSLFGLIGDAFKFWRAVE
B3: FixB subunit of the FixABCX complex from Azotobacter vinelandii (natural protein, UniProt P53574 2-360, looked up)
chain: SEQPKKPTKKKVELDPRFVDVRHVWVCIESERGVVHPVSWELLGEGRKSVDALGGELYGVVICGPGERGKEICGEPVQHGADKAYLLQHEILRDYRNEPYTKALTDLVTATQPEILMLGATTLGRDLAGSVATTLGTGLVADCTELVIDTETRNLASTRPTFDGSLLCKPSSAQRHRPQMATVRPRMAMPEPDASRSGEIIEVPFSMIETDIITKVLEFIPDDTRDKPNLPFADIIVAGGRGLRNQENFQLVWDLAKVLGAEVGASRPIVQAGWAELDRQVGQSGKTVRPKLYIAAGISGAIQHRVGMDGADVIIAINTDPNAPIFDFAHYGIVGNAITVLPALTEAFKARLGQLKKAG

Assays:
[1] = molecular target: FixAB from Rhodospirillum rubrum (Rhodospirillum rubrum, UniProt Q6US86+Q6US87); assay: transient absorption spectroscopy of bound flavin; format: binding; conditions: FAD-reconstituted, as-isolated oxidized state; room temperature
[2] = molecular target: B3; assay: co-purification
[3] = molecular target: T1, FixX subunit of the FixABCX complex …; assay: co-purification
[4] = molecular target: B2; assay: co-purification

Cc1cc2nc3c(=O)[nH]c(=O)nc-3n(C[C@H](O)[C@H](O)[C@H](O)COP(=O)(O)OP(=O)(O)OC[C@H]3O[C@@H](n4cnc5c(N)ncnc54)[C@H](O)[C@@H]3O)c2cc1C [FAD]
transient absorption spectroscopy of bound flavin [1]: two ASQ species can be formed in the FixAB unit, consistent with the presence of two flavins

B1
stoichiometry N [2]: 1

B2
stoichiometry N [3]: 1

B3
stoichiometry N [4]: 1
